According to article PMC4168798:

Assays:
Test in all cases: fluorescence polarisation
[1] = target: Bcl-xL (c-myc-tagged, without the C-terminal trans-membrane region) (human)
[2] = target: Bfl-1 (c-myc-tagged, without the C-terminal trans-membrane region) (human)
[3] = target: Mcl-1 (c-myc-tagged, without the N-terminal domain and the C-terminal trans-membrane region) (human)
[4] = target: Bcl-2 (c-myc-tagged, without the C-terminal trans-membrane region) (human)
[5] = target: Bcl-w (c-myc-tagged, without the C-terminal trans-membrane region) (human)
Chain of Bcl-w (c-myc-tagged, without the C-terminal trans-membrane region) (human) (Q92843 1-164): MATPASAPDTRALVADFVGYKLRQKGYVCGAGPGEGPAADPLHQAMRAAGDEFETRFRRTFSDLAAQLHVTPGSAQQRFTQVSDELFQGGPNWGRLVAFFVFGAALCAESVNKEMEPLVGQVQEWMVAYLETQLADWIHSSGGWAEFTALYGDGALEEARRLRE

Substance | Kd [1] | Kd [2] | Kd [3] | Kd [4] | Kd [5]
Bim_A2eT, N-terminal fluorescein (peptide; other documents disagree on this pair) | – | – | – | – | 0.039 µM
Bim_A2eT_E2gG, N-terminal fluorescein (peptide; other documents disagree on this pair) | – | – | – | – | 0.094 µM
Bim_A2eT_F4aI, N-terminal fluorescein (peptide) | 0.11 µM | 0.0079 µM | < 0.001 µM | 0.15 µM | –
Bim_A2eT_F4aI, N-terminal fluorescein (peptide; other documents disagree on this pair) | – | – | – | – | 0.016 µM
Bim_A2eT_I2dM, N-terminal fluorescein (peptide) | 0.083 µM | 0.15 µM | < 0.001 µM | 0.21 µM | –
Bim_A2eT_I2dM, N-terminal fluorescein (peptide; other documents disagree on this pair) | – | – | – | – | 0.26 µM

Results, then the substance that gave them:

Kd [1] | Kd [2] | Kd [3] | Kd [4] | Kd [5] | Substance
0.0026 µM | < 0.001 µM | < 0.001 µM | – | – | Bim 23-mer, N-terminal fluorescein (peptide)
0.017 µM | 0.031 µM | < 0.001 µM | 0.043 µM | – | Bim_A2eT, N-terminal fluorescein (peptide)
0.037 µM | – | 0.0016 µM | 0.15 µM | – | Bim_A2eT_E2gG, N-terminal fluorescein (peptide)
0.0076 µM | 0.12 µM | < 0.001 µM | 0.037 µM | – | Bim_A2eT_I3dL, N-terminal fluorescein (peptide)
– | – | – | – | 0.012 µM | Bim_A2eT_I3dL, N-terminal fluorescein (peptide; other documents disagree on this pair)
